From article PMC2171418 (The Journal of Cell Biology, 2005)

B1: Spc29p (natural protein, UniProt P33419 1-253, looked up)
chain: MDYSNFGNSASKKFQDDTLNRVRKEHEEALKKLREENFSSNTSELGNKKHYRAQERMSSPLHRLSPTGKSDDRKVKSPLDDKLRRQLREGNTRLPPPPFSSYGMPPTNRSNLDRIRRRTSSPVRTDKFASQNVIDDQRLEIKYLERIVYDQGTVIDNLTSRITRLESFILNSISDRGDKNFASLEHSRSFSGFPTNKTYGLQMGGLYENDMPYRRSSDNINKEGAREDRSSQIHIENESTEDILKILSSSFHN
B2: Spc42p (natural protein, UniProt P36094 1-363, looked up)
chain: MNGSPTPKRYSSKSSRLYDDYYNIPYQYSNPTPMNRDYNDVGSRINADKLVPEEYKRNTEFINKAVQQNKELNFKLREKQNEIFELKKIAETLRSKLEKYVDITKKLEDQNLNLQIKISDLEKKLSDANSTFKEMRFPKVKDPMVDDDPVSENYDQINVPKHRAPDATGNPRTTNKVSNTSDQDSRLKAIERTLSVLTNYVMRSEDGNNDRMSPLPSPLNTILPINNRLNFQEPKRYNPTVKVNPSDDDIMMYESAELKRVEEEIEELKRKILVRKKHDLRKLSLNNQLQELQSMMDGDDNIKLDNVSKHNHATHRHSSQSSRDYSPSSDACLECSNDLYEKNRVKPENNMSETFATPTPNNR
B3: Spc110p (natural protein, UniProt P32380 1-944, looked up)
chain: MDEASHLPNGSLKNMEFTPVGFIKSKRNTTQTQVVSPTKVPNANNGDENEGPVKKRQRRSIDDTIDSTRLFSEASQFDDSFPEIKANIPPSPRSGNVDKSRKRNLIDDLKKDVPMSQPLKEQEVREHQMKKERFDRALESKLLGKRHITYANSDISNKELYINEIKSLKHEIKELRKEKNDTLNNYDTLEEETDDLKNRLQALEKELDAKNKIVNSRKVDDHSGCIEEREQMERKLAELERKLKTVKDQVLELENNSDVQSLKLRSKEDELKNLMNELNELKSNAEEKDTQLEFKKNELRKRTNELNELKIKSDEMDLQLKQKQNESKRLKDELNELETKFSENGSQSSAKENELKMLKNKIAELEEEISTKNSQLIAKEGKLASLMAQLTQLESKLNQRDSQLGSREEELKKTNDKLQKDIRIAREETVSKDERIIDLQKKVKQLENDLFVIKKTHSESKTITDNELESKDKLIKILENDLKVAQEKYSKMEKELKEREFNYKISESKLEDEKTTLNEKISNLAAENSQLKNKIEDNSTATHHMKENYEKQLESLRKDIEEYKESAKDSEDKIEELKIRIAENSAKVSEKRSKDIKQKDEQISDLTQNLKLQEDEISSLKSIIDRYKKDFNQLKSEQSNIQHDLNLQILNLENKLIESEDELKSLRDSQKIEIENWKRKYNNLSLENDRLLTEKESASDKEREISILNRKLDEMDKEKWNLQESKEKYKRELQKVITANDRLRREKEELNENSNNIRIMEDKMTRIKKNYLSEITSLQEENRRLEERLILNERRKDNDSTMQLNDIISYYKLKYHSEVRHNNDLKVINDYLNKVLALGTRRLRLDTRKGEHSLNISLPDDDELDRDYYNSHVYTRYHDYEYPLRFNLNRRGPYFERRLSFKTVALLVLACVRMKRIAFYRRSDDNRLRILRDRIESSSGRISW

Each binder was assayed against Mlp2p–protein A (PrA) (S. cerevisiae, UniProt P40457 1-1679) (assay: far-Western, overlay or dot blot).
Mlp2p–protein A (PrA), sequence (P40457 whole entry): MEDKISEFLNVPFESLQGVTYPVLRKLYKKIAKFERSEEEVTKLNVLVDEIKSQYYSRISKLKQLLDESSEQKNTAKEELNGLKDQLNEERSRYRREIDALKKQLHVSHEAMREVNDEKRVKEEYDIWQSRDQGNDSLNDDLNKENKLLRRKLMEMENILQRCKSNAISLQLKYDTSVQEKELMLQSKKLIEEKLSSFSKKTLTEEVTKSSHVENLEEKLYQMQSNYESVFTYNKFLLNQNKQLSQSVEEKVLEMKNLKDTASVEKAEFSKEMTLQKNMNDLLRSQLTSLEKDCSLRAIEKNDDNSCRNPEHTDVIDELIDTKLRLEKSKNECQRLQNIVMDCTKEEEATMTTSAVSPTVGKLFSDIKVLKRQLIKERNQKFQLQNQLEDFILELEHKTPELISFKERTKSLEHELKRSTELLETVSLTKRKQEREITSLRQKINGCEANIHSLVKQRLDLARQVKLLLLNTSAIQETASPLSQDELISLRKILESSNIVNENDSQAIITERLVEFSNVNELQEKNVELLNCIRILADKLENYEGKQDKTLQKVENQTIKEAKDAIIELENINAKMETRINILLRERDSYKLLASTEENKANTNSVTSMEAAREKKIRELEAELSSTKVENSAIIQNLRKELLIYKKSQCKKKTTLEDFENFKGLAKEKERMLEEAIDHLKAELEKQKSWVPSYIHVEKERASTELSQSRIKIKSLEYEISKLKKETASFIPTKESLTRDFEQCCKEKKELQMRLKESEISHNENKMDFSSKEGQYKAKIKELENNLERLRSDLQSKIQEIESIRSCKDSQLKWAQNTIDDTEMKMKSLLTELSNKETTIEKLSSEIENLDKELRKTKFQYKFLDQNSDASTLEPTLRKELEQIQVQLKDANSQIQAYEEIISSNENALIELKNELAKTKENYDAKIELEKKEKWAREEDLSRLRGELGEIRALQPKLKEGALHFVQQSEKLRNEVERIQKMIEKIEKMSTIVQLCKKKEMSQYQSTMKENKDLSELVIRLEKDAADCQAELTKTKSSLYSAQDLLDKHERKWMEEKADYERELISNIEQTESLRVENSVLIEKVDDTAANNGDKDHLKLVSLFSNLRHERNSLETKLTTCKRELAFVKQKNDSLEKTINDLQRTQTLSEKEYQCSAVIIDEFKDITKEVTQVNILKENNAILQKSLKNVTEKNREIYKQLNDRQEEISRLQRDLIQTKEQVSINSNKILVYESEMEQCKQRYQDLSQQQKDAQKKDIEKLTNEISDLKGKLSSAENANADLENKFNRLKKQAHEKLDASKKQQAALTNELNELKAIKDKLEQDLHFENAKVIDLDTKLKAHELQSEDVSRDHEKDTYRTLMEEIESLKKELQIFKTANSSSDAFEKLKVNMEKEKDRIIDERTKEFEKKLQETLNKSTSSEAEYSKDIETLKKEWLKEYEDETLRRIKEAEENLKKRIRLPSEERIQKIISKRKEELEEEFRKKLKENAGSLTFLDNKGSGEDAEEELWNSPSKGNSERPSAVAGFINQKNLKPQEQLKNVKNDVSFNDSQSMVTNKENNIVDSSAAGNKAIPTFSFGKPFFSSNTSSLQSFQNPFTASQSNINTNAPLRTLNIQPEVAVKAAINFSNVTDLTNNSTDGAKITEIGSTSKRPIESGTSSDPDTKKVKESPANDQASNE

Binding result, binds:
B1
B2
B3
